# Test results as given in patent US20140315822A1.
# Legend:
# [1] = molecular target: T1, PDZ domain of the human MAST2 protein (human), Q6P0Q8
# T1 chain: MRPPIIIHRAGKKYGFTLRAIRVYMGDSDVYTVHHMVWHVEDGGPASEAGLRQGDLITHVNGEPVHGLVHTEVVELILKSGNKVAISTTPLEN
# [2] = molecular target: T2, PDZ domain of the human PTPN4 protein (human), P29074; experiment: method not restated in the table; ITC per paragraph 50
# T2 chain: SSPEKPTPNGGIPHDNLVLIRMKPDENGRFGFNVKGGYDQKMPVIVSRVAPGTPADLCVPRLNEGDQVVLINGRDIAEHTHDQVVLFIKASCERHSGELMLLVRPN
binder,measurement,setting,value
SWESHKSGGETRL (modifications not checked) [ATT13],Kd,[1],0.57 µM
same,Kd,[2],160 µM
